From patent US20200407442A1 (WUXI BIOLOGICS IRELAND, published 2020)
Each block holds one binder with its values, some of them ahead of it.

Key:
Experiment in all cases: FACS, 1 ug/mL antibody, transfected 293F cells
[1] = biological target: T1, Variant 6: xPro1.FL-x6 (human; mouse)
T1 construct: Chimeric full-length LAG-3 on transfected 293F cells
T1 chain: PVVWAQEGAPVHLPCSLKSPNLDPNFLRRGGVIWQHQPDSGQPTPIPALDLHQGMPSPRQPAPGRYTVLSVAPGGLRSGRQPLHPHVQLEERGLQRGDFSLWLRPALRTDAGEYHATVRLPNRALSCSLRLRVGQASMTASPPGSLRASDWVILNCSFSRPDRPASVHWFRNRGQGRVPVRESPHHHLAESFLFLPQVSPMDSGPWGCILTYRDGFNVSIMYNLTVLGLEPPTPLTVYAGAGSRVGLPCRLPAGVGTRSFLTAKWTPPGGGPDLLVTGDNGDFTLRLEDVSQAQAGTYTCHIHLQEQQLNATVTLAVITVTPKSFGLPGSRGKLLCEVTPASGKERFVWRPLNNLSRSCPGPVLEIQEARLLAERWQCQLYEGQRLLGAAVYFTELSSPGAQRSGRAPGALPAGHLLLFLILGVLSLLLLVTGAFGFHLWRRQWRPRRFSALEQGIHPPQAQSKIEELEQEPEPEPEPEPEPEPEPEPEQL
Experimental: (§1) The 10 variants were cloned into pcDNA3 vector and used for 293F cell transfection. Briefly, 293F cells were diluted to a density of 1×10⁶ cells/mL with FreeStyle 293F medium and aliquots of 3 mL/well were added to 24-well plate. Transfections were performed using 293fectin reagent (Life Technologies). For each transfection, 3 μg of DNA were diluted in 150 μOpti-MEM I-reduced serum medium (Life Technologies), and then combined with 6μL 293fectin reagent pre-diluted in 150 μL Opti-MEM I reduced serum medium. The DNA/[…] mixture was allowed to stand at 25° C. for 20 min before being added to the culture. The transfected cells were analyzed by flow cytometry at 48 h post-transfection.
(§2) Binding of antibodies to chimeric LAG-3 variants or full length human/mouse LAG-3 was analyzed by flow cytometry. Briefly, 1 μg/mL antibodies were incubated with chimeric LAG-3-expressing transfected 293F cells for 1 hour at 4° C., and then incubated with 3 μg/mL goat anti-human IgG Fc R-PE (Jackson) for 40 min at 4° C. Cells were analyzed with flow cytometer.

[2] = biological target: T2, full-length human LAG-3 on cells (human, UniProt P18627 23-525)
T2 construct: Expressed on Flp-In-293, CHO or 293F transfectants; also called hPro1.FL; cell surface human LAG-3
T2 sequence: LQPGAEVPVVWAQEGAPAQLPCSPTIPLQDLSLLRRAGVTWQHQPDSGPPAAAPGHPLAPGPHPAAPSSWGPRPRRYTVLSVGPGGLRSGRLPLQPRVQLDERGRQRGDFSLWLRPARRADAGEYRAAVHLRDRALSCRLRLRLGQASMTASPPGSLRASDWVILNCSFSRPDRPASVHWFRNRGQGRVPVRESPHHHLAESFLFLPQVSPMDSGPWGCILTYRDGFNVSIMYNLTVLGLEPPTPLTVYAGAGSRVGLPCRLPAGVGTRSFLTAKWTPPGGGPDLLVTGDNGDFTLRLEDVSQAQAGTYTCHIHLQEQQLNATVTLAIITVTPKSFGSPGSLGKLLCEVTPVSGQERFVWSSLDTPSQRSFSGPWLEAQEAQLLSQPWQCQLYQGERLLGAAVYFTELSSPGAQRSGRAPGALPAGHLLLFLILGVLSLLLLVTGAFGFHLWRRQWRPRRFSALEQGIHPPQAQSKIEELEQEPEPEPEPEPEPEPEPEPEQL
Experimental: as §1, §2

[3] = biological target: T3, Variant 10: xPro1.FL-x10 (human; mouse)
T3 construct: Chimeric full-length LAG-3 on transfected 293F cells
T3 chain: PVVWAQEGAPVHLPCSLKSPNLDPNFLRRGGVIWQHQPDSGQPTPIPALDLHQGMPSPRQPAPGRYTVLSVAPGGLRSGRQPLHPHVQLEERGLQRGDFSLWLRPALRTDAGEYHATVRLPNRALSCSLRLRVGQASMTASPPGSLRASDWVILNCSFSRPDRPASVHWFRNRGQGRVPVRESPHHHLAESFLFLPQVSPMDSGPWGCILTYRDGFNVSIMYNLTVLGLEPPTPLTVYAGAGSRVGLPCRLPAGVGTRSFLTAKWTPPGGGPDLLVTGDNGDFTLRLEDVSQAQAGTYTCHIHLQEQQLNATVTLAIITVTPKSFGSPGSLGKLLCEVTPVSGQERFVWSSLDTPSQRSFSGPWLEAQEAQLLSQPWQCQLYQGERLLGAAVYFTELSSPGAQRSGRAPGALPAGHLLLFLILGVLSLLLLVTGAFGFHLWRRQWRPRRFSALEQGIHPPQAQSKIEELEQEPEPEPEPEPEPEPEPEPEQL
Experimental: as §1, §2

[4] = biological target: T4, Variant 2: xPro1.FL-x2 (human; mouse)
T4 construct: Chimeric full-length LAG-3 on transfected 293F cells
T4 chain: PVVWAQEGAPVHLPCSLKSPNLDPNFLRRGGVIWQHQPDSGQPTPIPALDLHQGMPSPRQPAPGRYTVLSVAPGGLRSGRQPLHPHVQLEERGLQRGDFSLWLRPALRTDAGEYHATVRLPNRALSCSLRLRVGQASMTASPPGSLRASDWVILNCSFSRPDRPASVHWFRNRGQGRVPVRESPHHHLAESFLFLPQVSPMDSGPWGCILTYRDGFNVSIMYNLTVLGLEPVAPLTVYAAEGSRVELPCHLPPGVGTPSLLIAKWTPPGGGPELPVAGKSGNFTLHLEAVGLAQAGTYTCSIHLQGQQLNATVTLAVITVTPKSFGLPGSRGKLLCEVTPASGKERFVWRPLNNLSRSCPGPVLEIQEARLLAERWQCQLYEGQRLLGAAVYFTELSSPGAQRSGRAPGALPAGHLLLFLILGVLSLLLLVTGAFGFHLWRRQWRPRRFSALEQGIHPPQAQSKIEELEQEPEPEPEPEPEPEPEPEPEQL
Experimental: as §1, §2

MFI [1]: 59.9
PE+ % [1]: 1.86%
MFI [2]: 6540
PE+ % [2]: 96.8%
MFI [3]: 42.3
PE+ % [3]: 1.98%
MFI [4]: 45
PE+ % [4]: 1.77%
B1: 1.53.3-uAb-IgG4k (antibody, V domains shown)
VH: QVQLQQWGAGLLKPSETLSLTCGVYGGSFSGYYWSWIRQPPGMGLEWIGEINHRGNTNYNPSLKSRVTISEDTSKNQFSLRLSSVTAADTAVYFCTRGEDYSDYDYYGDFWGQGTLVTVSS
VL: EIVLTQSPATLSLSQGERATLSCRASQSISSYLAWYQQKPGQAPRLLIYAASNRATGIPARFSGSGSGTDFTLTISSLEPEDFAIYYCQQRSNWPLTFGGGTKVEIK
notes: Fully human antibody from OMT rats; IgG4 kappa by its name

MFI [1]: 44.1
PE+ % [1]: 0.674%
MFI [2]: 6520
PE+ % [2]: 83.5%
MFI [3]: 68.5
PE+ % [3]: 0.988%
MFI [4]: 40.6
PE+ % [4]: 0.305%
B2: 3.40.19-uAb-IgG4L (antibody, V domains shown)
VH: QLQLQESGPGLVKPSETLSLTCTVSGDSISSTSYYWGWIRQPPGKGLEWIGSFYYSGSTYYNPSLKSRVTISVDTSKNQFSLKLNSVTAADTAVYYCARMQLWSYDVDVWGQGTTVTVSS
VL: QSALTQPASVSGSPGQSITISCTGTSSDVGGYDYVAWYQQHPGKVPKLMIYDVSERPSGVSNRFSGSKSGNTASLTISGLQAEDEADYYCSSYTSTTTLVVFGGGTKLSVL
notes: Fully human antibody from OMT rats; IgG4 lambda by its name; also called 3.40.19-uAb-hIgG4L
